Laboratory results taken from patent US20190263889A1.
“And” between values parts separate entries of the source, which are not always exact repeats. Equal entries are not always repeated.

What was measured:
[1] = molecular target: CTLA-4Fc mutant protein M4 (human (murine residues substituted)); experiment: ELISA; binder 100 ng/ml on coated target
[2] = molecular target: CTLA-4Fc mutant protein M6 (human (murine residues substituted)); experiment: ELISA; binder 100 ng/ml on coated target
[3] = molecular target: CTLA-4Fc mutant protein M5 (human (murine residues substituted)); experiment: ELISA; binder 100 ng/ml on coated target
CTLA-4Fc mutant protein M5 (human (murine residues substituted)), sequence (chain, as listed by the source mutant): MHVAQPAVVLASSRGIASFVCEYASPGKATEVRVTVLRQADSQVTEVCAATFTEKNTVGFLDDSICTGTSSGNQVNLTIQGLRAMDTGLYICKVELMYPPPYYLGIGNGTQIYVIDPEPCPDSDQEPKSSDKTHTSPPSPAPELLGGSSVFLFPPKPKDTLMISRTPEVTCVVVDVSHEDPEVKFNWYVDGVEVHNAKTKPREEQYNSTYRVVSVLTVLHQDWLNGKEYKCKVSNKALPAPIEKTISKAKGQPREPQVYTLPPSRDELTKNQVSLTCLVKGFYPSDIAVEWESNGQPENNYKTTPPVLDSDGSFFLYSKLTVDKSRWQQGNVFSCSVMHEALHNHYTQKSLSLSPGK

[4] = molecular target: CTLA-4Fc mutant protein M1 (human (murine residues substituted)); experiment: ELISA; binder 100 ng/ml on coated target
CTLA-4Fc mutant protein M1 (human (murine residues substituted)), sequence (chain, as listed by the source mutant): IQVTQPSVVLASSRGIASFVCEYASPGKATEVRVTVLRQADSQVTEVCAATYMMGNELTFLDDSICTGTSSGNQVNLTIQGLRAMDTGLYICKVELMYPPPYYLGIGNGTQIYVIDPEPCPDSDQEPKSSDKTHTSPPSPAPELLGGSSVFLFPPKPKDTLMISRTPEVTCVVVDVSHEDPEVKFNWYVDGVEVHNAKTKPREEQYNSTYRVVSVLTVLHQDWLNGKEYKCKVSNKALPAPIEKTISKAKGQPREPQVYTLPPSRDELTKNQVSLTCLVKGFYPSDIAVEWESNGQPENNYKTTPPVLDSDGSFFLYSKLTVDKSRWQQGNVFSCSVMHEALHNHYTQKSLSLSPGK

[5] = molecular target: CTLA-4Fc mutant protein M7 (human (murine residues substituted)); experiment: ELISA; binder 100 ng/ml on coated target
CTLA-4Fc mutant protein M7 (human (murine residues substituted)), sequence (chain, as listed by the source mutant): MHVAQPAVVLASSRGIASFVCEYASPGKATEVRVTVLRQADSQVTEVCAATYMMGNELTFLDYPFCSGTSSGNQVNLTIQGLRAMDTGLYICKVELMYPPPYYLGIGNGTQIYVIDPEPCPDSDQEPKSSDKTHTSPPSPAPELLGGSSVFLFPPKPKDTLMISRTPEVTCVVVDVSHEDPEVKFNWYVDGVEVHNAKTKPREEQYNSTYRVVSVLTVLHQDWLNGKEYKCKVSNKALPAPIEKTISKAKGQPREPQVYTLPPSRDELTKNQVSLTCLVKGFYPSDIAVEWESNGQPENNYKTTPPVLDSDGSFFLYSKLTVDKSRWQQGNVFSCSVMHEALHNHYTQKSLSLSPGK

[6] = molecular target: CTLA-4Fc mutant protein M8 (human (murine residues substituted)); experiment: ELISA; binder 100 ng/ml on coated target
CTLA-4Fc mutant protein M8 (human (murine residues substituted)), sequence (chain, as listed by the source mutant): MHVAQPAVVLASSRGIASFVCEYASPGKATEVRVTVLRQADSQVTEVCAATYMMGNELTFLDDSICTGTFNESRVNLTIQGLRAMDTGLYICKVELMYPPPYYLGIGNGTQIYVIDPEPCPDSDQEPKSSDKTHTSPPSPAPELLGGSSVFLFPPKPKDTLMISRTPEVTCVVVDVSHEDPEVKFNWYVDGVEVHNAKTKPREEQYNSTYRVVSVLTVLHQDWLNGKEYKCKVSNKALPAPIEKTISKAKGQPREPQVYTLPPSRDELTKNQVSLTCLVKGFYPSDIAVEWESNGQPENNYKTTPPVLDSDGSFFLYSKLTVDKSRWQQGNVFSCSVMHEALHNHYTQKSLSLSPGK

[7] = molecular target: CTLA-4Fc mutant protein M10 (human (murine residues substituted)); experiment: ELISA; binder 100 ng/ml on coated target
CTLA-4Fc mutant protein M10 (human (murine residues substituted)), sequence (chain, as listed by the source mutant): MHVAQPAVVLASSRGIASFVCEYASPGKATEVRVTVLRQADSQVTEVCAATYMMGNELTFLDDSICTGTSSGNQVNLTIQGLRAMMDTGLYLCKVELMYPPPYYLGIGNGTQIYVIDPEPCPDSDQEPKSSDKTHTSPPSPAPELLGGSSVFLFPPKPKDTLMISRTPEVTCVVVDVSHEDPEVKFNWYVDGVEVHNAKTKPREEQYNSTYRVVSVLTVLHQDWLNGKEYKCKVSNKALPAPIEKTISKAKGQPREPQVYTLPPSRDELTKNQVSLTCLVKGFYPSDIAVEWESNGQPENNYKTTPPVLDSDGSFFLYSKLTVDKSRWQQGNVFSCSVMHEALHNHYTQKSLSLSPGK

[8] = molecular target: CTLA-4Fc mutant protein M2 (human (murine residues substituted)); experiment: ELISA; binder 100 ng/ml on coated target
CTLA-4Fc mutant protein M2 (human (murine residues substituted)), sequence (chain, as listed by the source mutant): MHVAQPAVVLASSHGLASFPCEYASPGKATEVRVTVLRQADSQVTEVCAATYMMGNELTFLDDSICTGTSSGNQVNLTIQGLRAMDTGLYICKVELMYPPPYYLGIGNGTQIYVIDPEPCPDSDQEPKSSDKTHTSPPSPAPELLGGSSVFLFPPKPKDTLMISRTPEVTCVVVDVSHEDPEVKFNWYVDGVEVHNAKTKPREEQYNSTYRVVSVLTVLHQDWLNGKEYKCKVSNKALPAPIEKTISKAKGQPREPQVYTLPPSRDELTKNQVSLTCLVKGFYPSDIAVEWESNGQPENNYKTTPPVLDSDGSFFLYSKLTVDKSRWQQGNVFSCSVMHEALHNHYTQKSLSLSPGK

[9] = molecular target: wild type human CTLA-4Fc fusion protein (abatacept) (human); experiment: ELISA; binder 100 ng/ml on coated target
wild type human CTLA-4Fc fusion protein (abatacept) (human), sequence (chain, as listed by the source limits assumed): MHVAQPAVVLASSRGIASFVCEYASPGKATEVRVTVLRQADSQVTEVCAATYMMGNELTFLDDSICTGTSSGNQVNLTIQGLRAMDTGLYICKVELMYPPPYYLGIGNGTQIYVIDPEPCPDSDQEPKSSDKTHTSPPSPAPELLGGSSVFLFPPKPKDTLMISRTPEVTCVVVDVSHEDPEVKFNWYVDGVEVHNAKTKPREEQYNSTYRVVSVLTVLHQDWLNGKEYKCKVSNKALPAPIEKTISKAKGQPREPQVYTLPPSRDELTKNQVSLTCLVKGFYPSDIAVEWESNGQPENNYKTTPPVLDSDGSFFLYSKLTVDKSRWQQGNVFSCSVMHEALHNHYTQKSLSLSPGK

[10] = molecular target: CTLA-4Fc mutant protein M3 (human (murine residues substituted)); experiment: ELISA; binder 100 ng/ml on coated target
CTLA-4Fc mutant protein M3 (human (murine residues substituted)), sequence (chain, as listed by the source mutant): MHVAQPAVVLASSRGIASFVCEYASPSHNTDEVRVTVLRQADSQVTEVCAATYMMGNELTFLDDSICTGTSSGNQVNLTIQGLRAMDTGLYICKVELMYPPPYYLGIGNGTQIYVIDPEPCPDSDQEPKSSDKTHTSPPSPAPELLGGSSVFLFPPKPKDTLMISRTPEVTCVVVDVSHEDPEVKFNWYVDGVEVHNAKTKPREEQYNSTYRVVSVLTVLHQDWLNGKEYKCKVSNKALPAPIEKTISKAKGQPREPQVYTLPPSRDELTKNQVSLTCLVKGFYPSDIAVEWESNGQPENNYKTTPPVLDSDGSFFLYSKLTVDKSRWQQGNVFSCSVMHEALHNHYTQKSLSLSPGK

[11] = molecular target: CTLA-4Fc mutant protein M9 (human (murine residues substituted)); experiment: ELISA; binder 100 ng/ml on coated target
CTLA-4Fc mutant protein M9 (human (murine residues substituted)), sequence (chain, as listed by the source mutant): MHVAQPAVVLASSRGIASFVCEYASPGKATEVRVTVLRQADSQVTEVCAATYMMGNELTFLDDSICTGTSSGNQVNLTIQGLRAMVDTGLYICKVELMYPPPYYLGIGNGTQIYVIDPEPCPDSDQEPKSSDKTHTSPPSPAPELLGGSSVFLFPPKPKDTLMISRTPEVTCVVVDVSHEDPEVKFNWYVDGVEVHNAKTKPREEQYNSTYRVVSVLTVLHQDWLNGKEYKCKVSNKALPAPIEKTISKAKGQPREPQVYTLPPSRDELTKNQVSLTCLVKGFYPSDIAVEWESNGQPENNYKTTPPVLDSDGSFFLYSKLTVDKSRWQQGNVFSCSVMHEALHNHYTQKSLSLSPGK

[12] = molecular target: CTLA-4Fc mutant protein M11 (human (murine residues substituted)); experiment: ELISA; binder 100 ng/ml on coated target
CTLA-4Fc mutant protein M11 (human (murine residues substituted)), sequence (chain, as listed by the source mutant): as the sequence (chain, as listed by the source limits assumed) above, with Y103F, L104V, I106M counted along it

[13] = molecular target: human CTLA-4 (form in the blocking assay not stated) (human) (UniProt P16410); experiment: blocking of B7-CTLA-4 interaction; format not stated, no data shown
human CTLA-4 (form in the blocking assay not stated) (human), sequence (P16410 36-223 limits assumed): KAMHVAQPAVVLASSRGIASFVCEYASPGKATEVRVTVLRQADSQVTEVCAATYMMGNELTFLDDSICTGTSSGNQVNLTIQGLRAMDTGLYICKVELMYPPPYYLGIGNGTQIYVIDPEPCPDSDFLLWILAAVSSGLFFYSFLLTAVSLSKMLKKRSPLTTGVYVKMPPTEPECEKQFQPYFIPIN

[14] = molecular target: CTLA-4Fc mutant protein M4 (human (murine residues substituted)); experiment: ELISA; binder 10 ng/ml on coated target
[15] = molecular target: CTLA-4Fc mutant protein M6 (human (murine residues substituted)); experiment: ELISA; binder 10 ng/ml on coated target
[16] = molecular target: CTLA-4Fc mutant protein M3 (human (murine residues substituted)); experiment: ELISA; binder 10 ng/ml on coated target
[17] = molecular target: CTLA-4Fc mutant protein M11 (human (murine residues substituted)); experiment: ELISA; binder 10 ng/ml on coated target
[18] = molecular target: CTLA-4Fc mutant protein M4 (human (murine residues substituted)); experiment: ELISA; binder 100 ng/ml on coated target; remark: listed apart in the source
[19] = molecular target: CTLA-4Fc mutant protein M6 (human (murine residues substituted)); experiment: ELISA; binder 100 ng/ml on coated target; remark: listed apart in the source
[20] = molecular target: CTLA-4Fc mutant protein M5 (human (murine residues substituted)); experiment: ELISA; binder 100 ng/ml on coated target; remark: listed apart in the source
[21] = molecular target: CTLA-4Fc mutant protein M1 (human (murine residues substituted)); experiment: ELISA; binder 100 ng/ml on coated target; remark: listed apart in the source
[22] = molecular target: CTLA-4Fc mutant protein M7 (human (murine residues substituted)); experiment: ELISA; binder 100 ng/ml on coated target; remark: listed apart in the source
[23] = molecular target: CTLA-4Fc mutant protein M8 (human (murine residues substituted)); experiment: ELISA; binder 100 ng/ml on coated target; remark: listed apart in the source
[24] = molecular target: mouse CTLA-4-Fc (mouse) (UniProt P09793); experiment: ELISA; binder 100 ng/ml on coated target
mouse CTLA-4-Fc (mouse), sequence (P09793 36-161 limits assumed): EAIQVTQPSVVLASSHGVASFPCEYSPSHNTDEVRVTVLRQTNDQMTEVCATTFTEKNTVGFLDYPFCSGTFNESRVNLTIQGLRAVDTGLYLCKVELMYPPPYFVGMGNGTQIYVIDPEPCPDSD

[25] = molecular target: CTLA-4Fc mutant protein M10 (human (murine residues substituted)); experiment: ELISA; binder 100 ng/ml on coated target; remark: listed apart in the source
[26] = molecular target: CTLA-4Fc mutant protein M2 (human (murine residues substituted)); experiment: ELISA; binder 100 ng/ml on coated target; remark: listed apart in the source
[27] = molecular target: wild type human CTLA-4Fc fusion protein (abatacept) (human); experiment: ELISA; binder 100 ng/ml on coated target; remark: listed apart in the source
[28] = molecular target: CTLA-4Fc mutant protein M3 (human (murine residues substituted)); experiment: ELISA; binder 100 ng/ml on coated target; remark: listed apart in the source
[29] = molecular target: human IgG1-Fc control (human) [IgG part: P01857]; experiment: ELISA; binder 100 ng/ml on coated target
[30] = molecular target: CTLA-4Fc mutant protein M9 (human (murine residues substituted)); experiment: ELISA; binder 100 ng/ml on coated target; remark: listed apart in the source
[31] = molecular target: CTLA-4Fc mutant protein M11 (human (murine residues substituted)); experiment: ELISA; binder 100 ng/ml on coated target; remark: listed apart in the source
[32] = molecular target: CTLA-4Fc mutant protein M4 (human (murine residues substituted)); experiment: ELISA; binder 0 (blank) on coated target
[33] = molecular target: CTLA-4Fc mutant protein M6 (human (murine residues substituted)); experiment: ELISA; binder 0 (blank) on coated target
[34] = molecular target: CTLA-4Fc mutant protein M5 (human (murine residues substituted)); experiment: ELISA; binder 0 (blank) on coated target
[35] = molecular target: CTLA-4Fc mutant protein M1 (human (murine residues substituted)); experiment: ELISA; binder 0 (blank) on coated target
[36] = molecular target: CTLA-4Fc mutant protein M7 (human (murine residues substituted)); experiment: ELISA; binder 0 (blank) on coated target
[37] = molecular target: CTLA-4Fc mutant protein M8 (human (murine residues substituted)); experiment: ELISA; binder 0 (blank) on coated target
[38] = molecular target: CTLA-4Fc mutant protein M10 (human (murine residues substituted)); experiment: ELISA; binder 0 (blank) on coated target
[39] = molecular target: CTLA-4Fc mutant protein M2 (human (murine residues substituted)); experiment: ELISA; binder 0 (blank) on coated target
[40] = molecular target: wild type human CTLA-4Fc fusion protein (abatacept) (human); experiment: ELISA; binder 0 (blank) on coated target
[41] = molecular target: CTLA-4Fc mutant protein M3 (human (murine residues substituted)); experiment: ELISA; binder 0 (blank) on coated target
[42] = molecular target: CTLA-4Fc mutant protein M9 (human (murine residues substituted)); experiment: ELISA; binder 0 (blank) on coated target
[43] = molecular target: CTLA-4Fc mutant protein M11 (human (murine residues substituted)); experiment: ELISA; binder 0 (blank) on coated target

CTLA-4Fc mutant protein M6 (human (murine residues substituted)), sequence (chain, as listed by the source mutant): as the sequence (chain, as listed by the source limits assumed) above, with A50T counted along it
CTLA-4Fc mutant protein M4 (human (murine residues substituted)), sequence (chain, as listed by the source mutant): as the sequence (chain, as listed by the source limits assumed) above, with Q39T, A40N, S42Q, Q43M counted along it

chimeric L3D10 anti-human CTLA-4 antibody
OD450 [1]: 2.14 OD450 and 1.41 OD450 | OD450 [2]: 2.7 OD450 and 2.77 OD450 | OD450 [3]: 2.84 OD450 and 2.99 OD450 | OD450 [4]: 3.25 OD450 and 3.24 OD450 | OD450 [5]: 2.5 OD450 and 2.48 OD450 | OD450 [6]: 2.91 OD450 and 2.84 OD450 | OD450 [7]: 0.215 OD450 and 0.216 OD450 | OD450 [8]: 1.38 OD450 and 1.16 OD450 | OD450 [9]: 3.05 OD450 and 3.02 OD450 | OD450 [10]: 2.32 OD450 and 2.35 OD450 | OD450 [11]: 0.295 OD450 and 0.304 OD450 | OD450 [12]: 0.635 OD450 and 0.759 OD450 | fold higher B7 blocking activity than 10D1 [13]: 1000 fold | OD450 [14]: 0.507 OD450 and 0.356 OD450 | OD450 [15]: 1.03 OD450 and 0.976 OD450 | OD450 [16]: 0.62 OD450 and 0.587 OD450 | OD450 [17]: 0.202 OD450 and 0.203 OD450 | OD450 [18]: 2.23 OD450 and 2.36 OD450 | OD450 [19]: 3.03 OD450 | OD450 [20]: 3.25 OD450 and 3.32 OD450 | OD450 [21]: 3.19 OD450 and 3.57 OD450 | OD450 [22]: 2.67 OD450 and 2.88 OD450 | OD450 [23]: 3.02 OD450 and 3.16 OD450 | OD450 [24]: 0.303 OD450 and 0.314 OD450 | OD450 [25]: 0.26 OD450 and 0.272 OD450 | OD450 [26]: 1.31 OD450 and 1.37 OD450 | OD450 [27]: 3.32 OD450 and 3.46 OD450 | OD450 [28]: 2.24 OD450 and 2.54 OD450 | OD450 [29]: 0.315 OD450 and 0.326 OD450 | OD450 [30]: 0.419 OD450 and 0.346 OD450 | OD450 [31]: 0.752 OD450 and 0.746 OD450 | OD450 [32]: 0.184 OD450 and 0.176 OD450 | OD450 [33]: 0.192 OD450 and 0.176 OD450 | OD450 [34]: 0.189 OD450 and 0.176 OD450 | OD450 [35]: 0.196 OD450 and 0.187 OD450 | OD450 [36]: 0.198 OD450 and 0.176 OD450 | OD450 [37]: 0.187 OD450 and 0.17 OD450 | OD450 [38]: 0.179 OD450 and 0.166 OD450 | OD450 [39]: 0.2 OD450 and 0.185 OD450 | OD450 [40]: 0.202 OD450 and 0.195 OD450 | OD450 [41]: 0.187 OD450 and 0.18 OD450 | OD450 [42]: 0.179 OD450 and 0.166 OD450 | OD450 [43]: 0.183 OD450 and 0.167 OD450
